The source of these data is article PMC9956121.

Assay [1] deals with hTAPBPR^FLQ (S104F, K211L, R270Q), luminal domain, C94S (human). Briefly: SPR; biotinylated hTAPBPR mutants immobilised on a streptavidin chip; Ac-6-FP-loaded MR1 C262S flowed over at 0-100 µM; 25°C; 150 mM NaCl, 20 mM sodium phosphate pH 7.4, 0.1% Tween 20; one site-specific binding fit. For orientation: In SPR one partner is held on a chip, and binding of the other changes the refractive index at the surface.

The target of assay [2] is hTAPBPR^KRQ (R105K, K211R, R270Q), luminal domain, C94S (human). The description is as above.
The target in assay [3] is hTAPBPR^RQ (K211R, R270Q), luminal domain, C94S (human). The assay is described as above.
Assay [4] concerns the target chicken TAPBPR, luminal domain (chicken (G. gallus)). The experiment in a line: SPR; biotinylated TAPBPR on a streptavidin chip; MR1 C262S injected at 0-100 μM; 25°C; 150 mM NaCl, 20 mM sodium phosphate pH 7.4, 0.1% Tween 20.
The target in assay [5] is human TAPBPR (TAP binding protein, related), luminal domain (human). Described as above.
The target of assay [6] is peptide-deficient (empty) HLA-A*11:01/hβ2m (human).
Assay [7] addresses peptide-deficient (empty) HLA-A*24:02/hβ2m (human).
In assay [8] the target is peptide-deficient (empty) HLA-A*01:01/hβ2m (human).
For assay [9], the target named is HLA-A*02:06/hβ2m loaded with a placeholder peptide (human).
Assay [10] deals with peptide-loaded HLA-A*02:01/hβ2m (photolabile peptide KILGFVFJV) (human).
The target in assay [11] is HLA-A*02:71/hβ2m loaded with a placeholder peptide (human).
In assay [12] the target is HLA-A*02:77/hβ2m loaded with a placeholder peptide (human).
The target of assay [13] is peptide-deficient (empty) HLA-A*02:01/hβ2m (human).
For assay [14] the target is unchanged. The source holds these as a separate data set.
For assay [15], the target named is peptide-deficient (empty) HLA-B*37:01/hβ2m (human).
In assay [16] the target is chicken TAPBPR, luminal domain (chicken (G. gallus)). The experiment in a line: SPR; biotinylated TAPBPR (about 1000 RU) on a streptavidin chip; HLA UV-irradiated 20 min at 365 nm just before injection at 0-20 μM; 25°C; 150 mM NaCl, 20 mM sodium phosphate pH 7.4, 0.1% Tween 20.
Assay [17] concerns the target hTAPBPR^FLQ (S104F, K211L, and R270Q), soluble ectodomain (human). Described as above.
In assay [18] the target is hTAPBPR^RQ (K211R and R270Q), soluble ectodomain (human). The description is as above.
Assay [19] has as its target human TAPBPR (TAP binding protein, related), luminal domain (human). The assay is described as above.
Assay [20] has the same target. Briefly: SPR; biotinylated TAPBPR (about 1000 RU) on a streptavidin chip; peptide-loaded HLA, not UV-irradiated, injected at 0-20 μM; 25°C; 150 mM NaCl, 20 mM sodium phosphate pH 7.4, 0.1% Tween 20.
For assay [21], the target named is hTAPBPR^FLQ (S104F, K211L, R270Q), luminal domain, C94S (human). Briefly: SPR; biotinylated TAPBPR (about 1000 RU) immobilised on a streptavidin chip; peptide-loaded HLA (photolabile peptide, no UV) flowed over at 0-20 µM; 25°C; 150 mM NaCl, 20 mM sodium phosphate pH 7.4, 0.1% Tween 20; 30 µl/min, 60 s injection, 180 s dissociation; kinetic fit or one site-specific binding ….

In assay [22] the target is hTAPBPR^KRQ (R105K, K211R, R270Q), luminal domain, C94S (human). Described as above.
In assay [23] the target is hTAPBPR^RQ (K211R, R270Q), luminal domain, C94S (human). The assay is described as above.
In assay [24] the target is chicken TAPBPR, luminal domain (chicken (G. gallus)). Briefly: SPR; biotinylated TAPBPR (about 1000 RU) on a streptavidin chip; peptide-loaded HLA, not UV-irradiated, injected at 0-20 μM; 25°C; 150 mM NaCl, 20 mM sodium phosphate pH 7.4, 0.1% Tween 20.
Assay [25] has the same target. The experiment in a line: ITC; 150 μM pHLA-B*08:01 in the syringe titrated into 5 μM chTAPBPR in the cell, both with 0.45 mM FLRGRAJGL; 150 mM NaCl, 20 mM sodium phosphate pH 7.2; one-site model; apparent KD.

Consider “MR1 C262S loaded with acetyl-6-formylpterin (Ac-6-FP) (complex)”, for which the Kd is 48000 nM in assay [1], 62000 nM in assay [2] and 49500 nM in assay [3].

As for “acetyl-6-formylpterin-loaded MR1 C262S/hβ2m (from UniProt P61769 21-119) (complex)”, the Kd in assay [4] turned out to be 19200 nM; in [5], 98700 nM.

Regarding “chicken TAPBPR, luminal domain (domain or fragment)”, the results for the overall exchange rate (FP), against hTAPBPR in assay [6] and in [7] were greater than 17 fold and greater than 7 fold, respectively. Also, the kapp of fluorescent peptide binding to HLA-A*01:01 with 5 μM TAPBPR (FP) in assay [8] amounted to 0.00017 s⁻¹.

For the substance “hTAPBPR^FLQ (S104F, K211L, and R270Q), soluble ectodomain (domain or fragment)”, the k2overall of peptide exchange (FP), against hTAPBPR in assay [9] came to 14 fold. Further, the k2overall of exchange of KILGFVFβFV-loaded HLA-A*02:01 with TAMRA-[…] (FP), against hTAPBPR in assay [10] was 90 fold. The substance also had a kapp of fluorescent peptide binding to HLA-A*01:01 with 5 μM TAPBPR (FP) in [8] of 7e-05 s⁻¹.

The substance “hTAPBPR^KRQ (R105K, K211R, and R270Q), soluble ectodomain (domain or fragment)” displayed a k2overall of peptide exchange (FP), against hTAPBPR in assay [9] of 9 fold. Further, the k2overall of exchange of KILGFVFβFV-loaded HLA-A*02:01 with TAMRA-[…] (FP), against hTAPBPR in [10] stood at 60 fold. This substance also returned a kapp of fluorescent peptide binding to HLA-A*01:01 with 5 μM TAPBPR (FP) in assay [8] of 0.00013 s⁻¹.

In turn, “hTAPBPR^RQ (K211R and R270Q), soluble ectodomain (domain or fragment)” displayed a k2overall of peptide exchange (FP), against hTAPBPR in assay [9] of 9 fold. For the same substance, the k2overall of exchange of KILGFVFβFV-loaded HLA-A*02:01 with TAMRA-[…] (FP), against hTAPBPR in [10] came to 60 fold. In assay [8], this substance showed a kapp of fluorescent peptide binding to HLA-A*01:01 with 5 μM TAPBPR (FP) of 0.00014 s⁻¹.

For “human TAPBPR (TAP binding protein, related), luminal domain (domain or fragment)”, the k2overall of peptide exchange (FP) was determined as 335 M⁻¹ s⁻¹ in [11], 17200 M⁻¹ s⁻¹ in assay [12] and 1160 M⁻¹ s⁻¹ in assay [13]. For the same substance, the k2overall of peptide exchange (FP), against chTAPBPR in [14] was 8 fold; in assay [15], 5 fold lower.

The substance “peptide-deficient (empty) HLA-A*01:01/hβ2m (from UniProt P61769 21-119) (complex)” yielded a Kd in assay [16] of 1460 nM.

As to “peptide-deficient (empty) HLA-A*02:01/hβ2m (from UniProt P61769 21-119) (complex)”, the Kd in [16] is 2960 nM; in assay [17] it was 81 nM; in assay [18], 188 nM; in [19] it was 170 nM.

Turning to “peptide-deficient (empty) HLA-A*11:01/hβ2m (from UniProt P61769 21-119) (complex)”, the Kd in [16] was found to be 910 nM; in assay [19], 2040 nM.

For the substance “peptide-deficient (empty) HLA-A*24:02/hβ2m (from UniProt P61769 21-119) (complex)”, the Kd in assay [16] came out at 1680 nM; in [19], 2540 nM.

As for “peptide-deficient (empty) HLA-A*29:02/hβ2m (from UniProt P61769 21-119) (complex)”, the Kd in assay [16] was 290 nM; in assay [19], 260 nM.

As for “peptide-deficient (empty) HLA-A*30:01/hβ2m (from UniProt P61769 21-119) (complex)”, the results for the Kd in assay [16] and in [19] were 1280 nM and 990 nM, respectively.

Regarding “peptide-deficient (empty) HLA-A*68:02/hβ2m (from UniProt P61769 21-119) (complex)”, the Kd in [16] turned out to be 430 nM; in assay [19] it was 120 nM.

Regarding “peptide-deficient (empty) HLA-B*08:01/hβ2m (from UniProt P61769 21-119) (complex)”, the Kd in assay [16] is 1890 nM.

For the substance “peptide-deficient (empty) HLA-B*37:01/hβ2m (from UniProt P61769 21-119) (complex)”, the Kd in assay [16] worked out at 2190 nM; in [19], 7020 nM.

In [19], “peptide-deficient (empty) HLA-E*01:03/hβ2m (from UniProt P61769 21-119) (complex)” gave a Kd of 1510 nM.

“peptide-deficient (empty) HLA-G*01:01/hβ2m (from UniProt P61769 21-119) (complex)”: the Kd in [16] turned out to be 11200 nM.

Regarding “peptide-loaded HLA-A*02:01/hβ2m (photolabile peptide KILGFVFJV) (from UniProt P61769 21-119) (peptide-MHC)”, the Kd in assay [20] was 9440 nM.

Consider “peptide-loaded HLA-A*02:01/hβ2m/KILGFVFJV (from UniProt P61769 21-119) (peptide-MHC)”, for which the values for the Kd in assay [21], in [22] and in assay [23] were 1260 nM, 1380 nM and 1310 nM, respectively.

With “peptide-loaded HLA-A*24:02/hβ2m (photolabile peptide VYGJVRACL) (from UniProt P61769 21-119) (peptide-MHC)”, the Kd in assay [24] came out at 17400 nM; in assay [20], 10900 nM.

Consider “peptide-loaded HLA-A*29:02/hβ2m (photolabile peptide) (from UniProt P61769 21-119) (peptide-MHC)”, for which the Kd in assay [24] is 170 nM; in [20], 190 nM.

In turn, “peptide-loaded HLA-A*30:01/hβ2m (photolabile peptide) (from UniProt P61769 21-119) (peptide-MHC)” displayed a Kd in assay [20] of 950 nM.

Turning to “peptide-loaded HLA-A*68:02/hβ2m (photolabile peptide) (from UniProt P61769 21-119) (peptide-MHC)”, the figures for the Kd in [24] and in [20] were 560 nM and 220 nM, respectively.

In the case of “peptide-loaded HLA-B*08:01/hβ2m (photolabile peptide FLRGRAJGL) (from UniProt P61769 21-119) (peptide-MHC)”, the Kd in assay [25] worked out at 4600 nM; in [24], 3190 nM.
